Assay results from US20250154548A1, “CONTROL OF ENZYMATIC NUCLEIC ACID SYNTHESIS VIA ELECTROCHEMICAL MEANS” (The Charles Stark Draper Laboratory, Inc., priority 2023, published 2025).

Assay: Proteinase K activity as a function of pH and after pH neutralization
Format: biochemical
Conditions: for recovery of proteinase K activity after neutralization: after exposure to highly acidic (pH 3.5) or basic (pH 12) conditions, neutralized to pH 7 to 7.5
Source text: FIGS. 1A-1C provide information on activating proteinase K at different pH conditions.
Another method of deblocking after nucleotide addition using a conjugated enzyme is to digest the protein around the extended DNA. Proteinase K (ProK) is a hydrolase that digests proteins at aliphatic and aromatic residues making it a broad-spectrum protease^1 that could be used to fully digest TdT releasing the extended DNA for the next round of addition. This enzymatic cleavage step could potentially be spatially controlled via an electrochemically driven pH change, as depicted in FIG. 1A. […] A voltage would then be applied to electrodes near the DNA site to be cleaved for the next addition. This would cause a shift in the pH near this active electrode that would re-activate ProK to digest nearby TdT molecules, deblocking the DNA for subsequent nucleotide addition. ProK has some natural pH sensitivity^1-2 and could be further engineered to shift the activity profile into a desirable pH range.

B1: Proteinase K: hydrolase that digests proteins at aliphatic and aromatic residues, a broad-spectrum protease (protein, UniProt P06873 106-384, looked up)
Proteinase K: AAQTNAPWGLARISSTSPGTSTYYYDESAGQGSCVYVIDTGIEASHPEFEGRAQMVKTYYYSSRDGNGHGTHCAGTVGSRTYGVAKKTQLFGVKVLDDNGSGQYSTIIAGMDFVASDKNNRNCPKGVVASLSLGGGYSSSVNSAAARLQSSGVMVAVAAGNNNADARNYSPASEPSVCTVGASDRYDRRSSFSNYGSVLDIFGPGTSILSTWIGGSTRSISGTSMATPHVAGLAAYLMTLGKTTAASACRYIADTANKGDLSNIPFGTVNLLAYNNYQA
recovery of proteinase K activity after neutralization: recovers
recovery of proteinase K activity after neutralization (listed as ProK): activity can be recovered
proteinase K activity (at pH 12.5): negligible activity
proteinase K activity (relative to activity at pH 7.3) (below pH 5 and above pH 10): complete dropoff in activity
